Laboratory results from patent publication US10864269B2, “Therapeutic combinations comprising anti-CD73 antibodies and uses thereof” (MedImmune Limited, priority 2014, dated 2020).
Numbering of substitutions follows the chain as printed.

T1: murine CD73 (Mus musculus, UniProt Q61503)
T1 sequence (Q61503 29-551): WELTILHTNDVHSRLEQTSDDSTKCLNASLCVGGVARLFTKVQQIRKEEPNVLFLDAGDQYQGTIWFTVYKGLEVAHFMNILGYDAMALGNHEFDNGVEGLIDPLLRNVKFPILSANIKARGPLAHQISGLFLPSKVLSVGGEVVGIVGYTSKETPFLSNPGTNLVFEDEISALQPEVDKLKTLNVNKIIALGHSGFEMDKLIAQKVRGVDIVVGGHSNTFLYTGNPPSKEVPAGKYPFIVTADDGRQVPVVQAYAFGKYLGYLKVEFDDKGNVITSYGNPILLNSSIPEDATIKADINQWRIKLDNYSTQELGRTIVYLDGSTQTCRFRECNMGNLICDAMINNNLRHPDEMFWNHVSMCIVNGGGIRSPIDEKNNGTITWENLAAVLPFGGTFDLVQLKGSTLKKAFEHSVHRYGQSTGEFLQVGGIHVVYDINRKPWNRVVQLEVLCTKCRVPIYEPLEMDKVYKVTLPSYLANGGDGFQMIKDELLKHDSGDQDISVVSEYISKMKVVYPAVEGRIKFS

T2: huCD73 (Homo sapiens, UniProt P21589)
T2 sequence (P21589 27-549): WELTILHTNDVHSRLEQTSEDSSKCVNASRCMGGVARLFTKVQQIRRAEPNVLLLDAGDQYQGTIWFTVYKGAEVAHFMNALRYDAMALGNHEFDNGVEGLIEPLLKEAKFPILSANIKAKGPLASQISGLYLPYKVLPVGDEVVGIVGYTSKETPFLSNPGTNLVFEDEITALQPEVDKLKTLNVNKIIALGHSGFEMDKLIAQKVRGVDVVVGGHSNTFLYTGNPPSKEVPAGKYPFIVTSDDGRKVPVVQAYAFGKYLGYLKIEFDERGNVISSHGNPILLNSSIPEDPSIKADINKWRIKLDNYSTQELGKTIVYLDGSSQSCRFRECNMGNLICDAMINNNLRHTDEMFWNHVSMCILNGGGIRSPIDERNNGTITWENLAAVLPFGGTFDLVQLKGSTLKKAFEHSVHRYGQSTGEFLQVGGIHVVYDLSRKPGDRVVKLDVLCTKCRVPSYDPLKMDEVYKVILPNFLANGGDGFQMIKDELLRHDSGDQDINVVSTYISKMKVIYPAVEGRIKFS

T3: native CD73, MDA-MB-231 cells (Homo sapiens, UniProt P21589)
T3 construct: native CD73 expressed on human, murine, and cynomolgus monkey cell lines; endogenous in cells; host or cells: MDA-MB-231
T3 sequence (P21589 27-549): T2 sequence (P21589 27-549)

T4: muCD73 (Mus musculus, UniProt Q61503)
T4 sequence (Q61503 29-551): T1 sequence (Q61503 29-551)

B1: CD730002 2C5: IgG1 with CD730002-derived VL of SEQ ID NO: 88 and VH of SEQ ID NO: 87 (antibody, V domains shown)
VH: EVQLLESGGGLVQPGGSLRLSCAASGFTFSSYAMSWVRQAPGKGLEWVSAISGSGGSTYYADSVKRRFTISRDNSKNTLYLQMNSLRAEDTAVYYCARDKGYYWYMDVWGQGTMVTVSS
VL: QSVLTQPPSVSVSPGQTASITCSGDKVGDKYASWYQQKPGQSPVLVIYEDTKRLSGIPERFSGSNSGNTATLTISGTQAMDEADYYCQAWDTSFWVFGGGTKLTVL
B2: C2: combinatorial library clone of CD730010 GL9; VL SEQ ID NO: 61, VH SEQ ID NO: 75 (antibody, V domains shown)
VH: EVQLLESGGGLVQPGGSLRLSCAASGFTFSSYAYSWVRQAPGKGLEWVSLIWGSWGSTYYADSVKGRFTISRDNSKNTLYLQMNSLRAEDTAVYYCARLGYSTIDMWGRGTLVTVSS
VL: QSVLTQPPSASGTPGQRVTISCSGSLSNIGRNPVNWYQQLPGTAPKLLIYLDNLRLGGVPDRFSGSKSGTSASLAISGLQSEDEADYYCATWDDSLKGWLFGGGTKLTVL
B3: D3: combinatorial library clone of CD730010 GL9; VL SEQ ID NO: 62, VH SEQ ID NO: 76 (antibody, V domains shown)
VH: B2 VH with L50A, W52S, W55G, S57R, M106L
VL: B2 VL with G57S, K97I
B4: G10: combinatorial library clone of CD730010 GL9; VL SEQ ID NO: 63, VH SEQ ID NO: 77 (antibody, V domains shown)
VH: B2 VH with L50A, W52S, S57R, M106L
VL: B2 VL with P33D, D52N, L54Q

What was measured:
murine CD73 = biological target: T1, murine CD73; experiment: Solution binding, murine CD73; details: as measured by solution binding
huCD73 [1] = biological target: T2, huCD73; experiment: Solution binding, human CD73; details: as measured by solution binding
[2] = biological target: T3, native CD73, MDA-MB-231 cells; experiment: Flow cytometry binding to native CD73, MDA-MB-231 cells; details: as measured by flow cytometry; read-out: KD, CD73 on the surface of MB-MDA-231 cells
Protocol: (§1) Binding of MEDI9447 to native CD73 expressed on human, murine, and cynomolgus monkey cell lines was characterized by flow cytometry. The cells were incubated with various concentrations of MEDI9447 and antibody binding was monitored with and fluorophore-labeled anti-human Fc antibody. A plot of the median fluorescence intensity as a function of the MEDI9447 concentration was fitted nonlinearly using a one-site binding isotherm model to calculate the equilibrium dissociation constant.
(§2) The affinity of enhanced anti-CD73 antibodies (in IgG1-TM format) to human, murine, and cynomolgus CD73 was determined by flow cytometry and surface plasmon resonsance (SPR) (Table 13). The enhanced antibodies had pM affinity to cellular and recombinant CD73 from the three species.
(§3) All flow cytometry experiments were run at 4C and reagents were prepared in PBS/1% FBS buffer. 10,000 cells were incubated with test antibody in 50 uL volume for 4 hours. Cells were washed twice and incubated in 50 uL goat anti-human IgGFc-AlexaFluor647 conjugate for 15 minutes. Cells were washed, resuspended in buffer supplemented with Dapi, and analyzed on a flow cytometer. […] For the determination of KD values, a plot of the median fluorescence intensity as a function of test antibody concentration was fitted nonlinearly using a one site binding isotherm model.

native CD73, MK-1 cells = experiment: Flow cytometry binding to native CD73, MK-1 cells; details: as measured by flow cytometry; read-out: KD, CD73 on the surface of cynomolgus MK-1 cells
Protocol: as §1, §2, §3

cynomolgus CD73 = experiment: Solution binding, cynomolgus CD73; details: as measured by solution binding
huCD73 [3] = biological target: T2, huCD73; experiment: ELISA binding of Fab variants to human CD73; details: combinatorial Fab library clones, capture ELISA and direct ELISA
Source text: (§4) CD730010GL9 IgG1-TM was enhanced by screening Fab libraries comprising variant CDR sequences with single amino acid mutations. Each of the 61 positions in the six CDRs was individually randomized to 19 amino acids (all natural amino acids except Cysteine), generating a library with a theoretical diversity of 1159 unique clones (19 amino acids per position times 61 positions). Bacterial Fab fragments were produced from 4224 clones of the library and screened for binding to human and murine CD73 protein by capture ELISA (Assay 2). 180 clones with increased binding signal compared to parental CD730010 GL9 IgG1-TM were selected and the mutations in the VH or VL domain were identified by DNA sequencing. The Fab concentration in the bacterial supernatants was normalized and the binding of the normalized supernatants to human and murine CD73 protein was evaluated by direct ELISA (Assay 1). Table 11 lists selected beneficial single amino acid substitutions and their effect on binding to recombinant CD73 protein.
(§5) To further improve the affinity of the anti-CD73 antibody, several single amino acid changes which improved binding when compared to parental CD730010 GL9 were combined to create a combinatorial Fab library (Assay 4). Fab fragments of 4224 clones of the combinatorial library were produced in E. coli and screened for binding to human and murine CD73 protein by capture ELISA. […]
(§6) 384-well ELISA plates were coated with about 1.5 ng/well recombinant CD73 protein, blocked with 1% BSA/0.1% Tween20/PBS and incubating with antibody samples for 90 minutes at room temperature. […] HRP activity was detected with tetra methyl benzidine (TMB) substrate and the reaction was stopped with 1 M HCl. Plates were read at 450 nm.
as §6, with “3” for “1.5”, “sheep-anti-human Fd antibody (for screening antibodies in Fab format),” for “recombinant CD73 protein,”, “with” for “with antibody”

muCD73 = biological target: T4, muCD73; experiment: ELISA binding of Fab variants to murine CD73; details: combinatorial Fab library clones, capture ELISA and direct ELISA
Source text: as §4, §5, §6
as §6, with “3” for “1.5”, “sheep-anti-human Fd antibody (for screening antibodies in Fab format),” for “recombinant CD73 protein,”, “with” for “with antibody”

Molecule	Kd (murine CD73) [nM]	Kd (huCD73 [1]) [nM]	Kd [2] [nM]	Kd (native CD73, MK-1 cells) [nM]	Kd (cynomolgus CD73) [nM]	binding to human CD73 (huCD73 [3])	binding to murine CD73 (muCD73)
B1	~1.5	~0.08	~0.08	~0.06	~0.1		
B2						strong binding	strong binding
B3						strong binding	strong binding
B4						strong binding	strong binding
